For one molecule, EC50 and Kd results are on record in patent US20240166737A1.

Assay [1] deals with CD3 epsilon on human T-cells (human) (UniProt P07766). As to the kind of experiment: T cell binding.
In a further assay the target is recombinant CD3 (UniProt P07766). As to the kind of experiment: SPR.
Chain of recombinant CD3 (P07766 23-126): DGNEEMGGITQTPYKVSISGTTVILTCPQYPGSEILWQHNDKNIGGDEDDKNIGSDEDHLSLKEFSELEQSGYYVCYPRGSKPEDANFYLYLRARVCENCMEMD

Chain of CD3 epsilon on human T-cells (human) (P07766 23-207 limits assumed): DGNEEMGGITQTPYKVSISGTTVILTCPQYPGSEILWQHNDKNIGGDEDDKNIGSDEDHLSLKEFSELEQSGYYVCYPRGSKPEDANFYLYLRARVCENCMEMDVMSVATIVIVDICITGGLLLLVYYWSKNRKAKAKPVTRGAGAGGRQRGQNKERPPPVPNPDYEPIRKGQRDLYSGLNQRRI

B1: CD3B450-LH-ScFv (scFv, V domains shown, not shown: small tags and cut ends)
VH: QVQLQQSGPGLVKPSQTLSLTCAISGDSVFNNNAAWSWIRQSPSRGLEWLGRTYYRSKWLYDYAVSVKSRITINPDTSKNQFSLQLNSVTPEDTAVYYCARGYSSSFDYWGQGTLVTVSS
VL: QSALTQPASVSGSPGQSITISCTGTSSNIGTYKFVSWYQQHPGKAPKVMIYEVSKRPSGVSNRFSGSKSGNTASLTISGLQAEDEADYYCVSYAGSGTLLFGGGTKLTVL
What is called EC50 is the concentration needed to bring the measured effect to its halfway point. Read a high EC50 as weaker potency. The Kd is a measure of binding affinity in units of concentration. In assay [1], B1 gave a half-maximal effective concentration (EC50) above 300 nM. In the assay with recombinant CD3, the equilibrium dissociation constant (Kd) lay in the range of 50 to 100 nM.
